Source: the DeepSol protein solubility set

Assay: soluble on expression in E. coli; label from the status in PepcDB or PDB records

Sequence | soluble on expression in E. coli
MSLRTLPAIVMMTLYALAGLAHAQQPPWRVGFCQDTLDIPWRAAQAMTFSQTLQTDKRFQVILSDAKGNTTQQAIDLEHMVERGVHVLVTSPRDGAVLTPVISNIYRQGVPVVLLSRRTLDENFTTFIAPDDAEIGRQAARYLSKRLNEKGKILVIQGLGSASTTQQRTVGFIQELSLHPHMQIVAQPFANYKKEMAILIMESILAQKLPFDAIYVHSDAMALGAILALKRAGIDPTKLPIVSIDYTRAGRESLRKGEIDAIFTYPNGVKQGITAVKRILAGQPVNKFQTVPSTLVTQENINTLEPVEGHHHHHH | soluble
MAHHHHHHMQHSLRGDFVTQRSTCFRTEKERKQKALNLIKNENNAEGYFNNLNFNLEYTEELNEQITSLDPKTSIQELTNIFNDLNENRKKNFHYLIEALENVSLILAHQNDIPEKHRKSTWCKIKHDLQCDFIKEHPNIHSNFDVFIRKIQSIDEFISYIKECIHSWNNFTNEKKLQYFPKVYETYQSDKICKENNYKKINNKTECNPKESIKNESIPKECIPNENMKKECVPNGCMKKQCVPKECMKKECVTNGHMKKQCVPNECMKKQCVPKECMKKECVPNGCMKKECTPNKNDKNVNRTDINNQNKTNEKLCDKKEKKRLPSK | soluble
AIANGTELRETLEDLIKEVVQASREALDTQGELNERNEAALRTLEAQWRQRLIEELHEQGSLRVVLCRTDLLVPGSGATGTTTTNRTDPLRYVYETLRQRDPRERRRSLPPERSSQSSELEDTGTDSGEALSSGDDDDEISQVAGQPEPETANYVLSQYERVLAPSTNKQRIWRVFLRDAMVHINGQDLLLNQLQCQFDW | soluble
QSWYGGFKDTAELVRGDSNECIELTDDQLSYLAVLWAARCAVGFQEMKLTRLAKETRLSHEVVQKITQIFISQGIVSVFEEYGPSGQKDVAWVQLTEHGCGLAKNLERVSSHS | not soluble
MCGIIGFMSRTGRLISGDRIATALNCLKERGNGEGSGYVGYGIYPDYKDDYAIHVFLDATKDYDRIRHEVEEVLVKYGYILKDEEIPTEEGIIKQEQVSWRFFYRFDEKYKTVEEDLMVDIVMDINAKIDGAFVFSSGKNMGVFKAAAWPLEVAEYFKIDQYKGFQWLSHARYPTNTKGWWGGAHPFNLLGWSVVHNGEITSYGANKRYVESFGYKCKLLTDTEVVAYLFDLLIRKHKIPVEYAMSALAPRFWDEIEIMSEEDKKIHEAIRMTYGGATMNGPFGIVVGTQEGMVFMNGEVEEGNTMVGLTDRIKLRPLVAAEKDDLLFVSSEESAIRKICPELDRVWMPDAGRMVIAKLEKKI | not soluble
MRTTSRALMYGLYDEFQISLKCPRSPPNSSFSICHAQAAFLSGVCEAMLCPLERVQVLLQTTIFHDKFKNTLHTFNRLRDYGYREYYRGFSVILIRNSLSNTIFFTLRDPLKQKIVGIPQAGRLPESLQQLIGDFVAGSLLGATISTAFFPLGVIKNHMQAKVGVKYESGFKVFRDVWQLRNRSLRGLYLGVHLNFTRSLVAWGIINSMYGILRRALAPFE | not soluble
MGSDKIHHHHHHMQKDKIKTDWSHGENPEDYKCCVAFHGHDCPGLAVGYRAAQAALAALCGERAEDEELVAIVETDACGVDALQVLTGCTFGKGNLIYQDHGKHVFTLIERKSGRGVRVALKAGVMEMNERHLTLMEKVHQMTATPHETAEFWKIHSQKALEILQKPIETLFNIQPINRTLPPKARREPSRLCARCGEPAMGSKLVVLDGREVCRDCLQPEER | not soluble
MVKSLQLAHQLKDKKILLIGGGEVGLTRLYKLIPTGCKLTLVSPDLHKSIIPKFGKFIQNEDQPDYREDAKRFINPNWDPTKNEIYEYIRSDFKDEYLDLEDENDAWYIIMTCIPDHPESARIYHLCKERFGKQQLVNVADKPDLCDFYFGANLEIGDRLQILISTNGLSPRFGALVRDEIRNLFTQMGDLALEDAVVKLGELRRGIRLLAPDDKDVKYRMDWARRCTDLFGIQHCHNIDVKRLLDLFKVMFQEQNCSLQFPPRERLLSEYCSS | not soluble
MSLKNIRHIYYVSENTGLLAKDSGKSLLCQFPGVEFQEELLPFIRTKDDAQRTINAIREKCGEEKPIIFSTIFDPEINKILQHEDVILLNICEPFLTQLEGMLGKNALRASGHSRNVDQQIMSNRVDAIHYTISHDDGTAIMDYEEADLIIVGVSRSGKTPISVFLATQMGIKTANYPLVEQDLTFCQLPEDIIKNKHKVVGLSISPDVLHTFREQRYKGSHYAQMSTCKRETLQSKRIFEKYDLPVVFSDARSIEETATQVAQELSKQWNPIFEGHHHHHH | soluble
MGHHHHHHSHKVYWGVAWDRSDVAVKIYLSFTSDFRKSIRKYIVGDPRFEDIPAGNIRRLIYEWARKEYRNLRRMRESGVRVPRPVAVEANIIVMEFLGEKGYRAPTLAEAVEELDRGEAEAIAAEVLRQAEAIVCRARLVHADLSEYNILVWRGEPWIIDVSQAVPHSHPNAEEFLERDVENLHRFLTGKMGFEFDFDAYLSRLKS | not soluble
GLEYRFSKSKQALELTSLRLKEKSEQLEHSQRVAIVGEIGSSLAHELNQPLAAIRNYSEGGLLRLAKKRPHEDIVPVLEKIQGQVERADAIIQRLRTLIRKRSVDKTPCDIQALIADTIELLHFRMQKQNVAIVTSVEGEIRPLLADSVGVQQVLVNVINNAIDACALFQEKYHSSGYQGKIALHCDYQANQLSIRILDNGTGLQQENPTQAFVSSKAEGLGLGLAICRDVMEMHGGEFLIASTTPHGCLVELVFPYQN | not soluble
MSLDNMAKRQTKDIETIIQKIYYAKNRHLGTYTPLKNNSELEEINNYIYDLFESNEQLIHSIEHTERRLRDIQLKEIERQFQPHFLFNTMQTIQYLITLSPKLAQTVVQQLSQMLRYSLRTNSHTVELNEELNYIEQYVAIQNIRFDDMIKLHIESSEEARHQTIGKMMLQPLIENAIKHGRDTESLDITIRLTLARQNLHVLVCDNGIGMSSSRLQYVRQSLNNDVFDTKHLGLNHLHNKAMIQYGSHARLHIFSKRNQGTLICYKIPLSRGNVDVEGHHHHHH | not soluble
MGRFRRVLTTAVLTTLLVGGTAGWASASSASVPGGPLPGTAAWLADDFLGRELPDPGTATPAEVAAFFAGLSDVQRHRLAEDHPAVVGNLDGVPVHLRYEANAPAGDRVLAYDPRGRGTIARVAGDLENAAHVSVIVPGSDIDAETFDRTAQRAADLQAAAGDDTAVIAWAGYTTPSGIGPDLATGRLAEAGAERLARLTEGLDAAGLPDPSLFCHSYGSVVCGLAADDTDARDIVVMGSPGMRADDVGALGTDAHVWAAKSPDDWIDRVPNVEFLGLGHGADPTSPGFGATVLPADDVPAHDEYFTPGTSTLAAFAAIADGERPLEHHHHHH | not soluble
MQSWYLLYCKRGQLQRAQEHLERQAVNCLAPMITLEKIVRGKRTAVSEPLFPNYLFVEFDPEVIHTTTISATRGVSHFVRFGASPAIVPSAVIHQLSVYKPKDIVDPAPPYPGDKVIITEGAFEGFQAIFTEPDGEARSMLLLNLINKEIKHSVKNTEFRKL | not soluble
MSTAVIVSRPPSQTASFHGPQHPNRCSFSSSSSESIPPTTGRAKGSSDFEELEIRIDKALKERDAEWRKHEKSQIQFLQNETSNMLKSLHNEINRLGNELREEKRKTLHGDDDSADKIAELEKVITEKEAYTKNLEKKVSTTIQKLQEQITIQSDRIRQLNEELSDRNQTVTHLSQQLRAIKLREAMATSQHRRRASSQLSTTSSPPMTSPSSPHRIFPPVSSGLLSASVAVTYPGNSRISIQKRSTSAMRAPTMPN | not soluble
MGSDKIHHHHHHMDQGDDGDGQTANADYSIRIAAGIGAFTCDEWNGFAGTTRSDAENGYNPLVSFAFLSALEDSGCAVRRTGWQGHHVRLETAQGRLLGAVPCYLKSHSQGEYVFDHGWSDAFERAGGRYYPKLQCAVPFTPVTGPRLLVNRGEDPDAVKAGLAAGLKMVTDKLGVSSAHVTFAQESDVATLEAAGFLHRTDQQFHFFNEGFSTYDDFLATLASRKRKAMKKERREALADGITIDWLTGKDLTEKAWDDFFAFYMDTGSRKWGRPYLNRQFFSLIGERMADDILLVMARRNGRYVAGAINFIGSDALYGRNWGCIEDHPFLHFEVCYHQAIDFAIERKLKVVEAGAQGEHKLARGYRPVTMHSAHYISHPGLRNAVADYLQRERREVERMGEYLEEHTPFRKDLEE | not soluble
MSLEGEKRVELHLHSPMSQMDAVTGIGKLVEQAKKWGHEAIALTDHAVVQSFPDAYSAAKKHGIKMIYGMEANLVDDGVPIAYNAAHRLLEEETYVVFDVETTGLSAVYDTIIELAAVKVKGGEIIDKFEAFANPHRPLSATIIELTGITDDMLQDAPDVVDVIRDFREWIGDDILVAHNASFDMGFLNVAYKKLLEVEKAKNPVIDTLELGRFLYPEFKNHRLNTLCKKFDIELTQHHRAIYDTEATAYLLLKMLKDAAEKGIQYHDELNENMGQSNAYQRSRPYHATLLAVNSTGLKNLFKLVSLSHIHYFYRVPRIPRSQLEKYREGLLIGSACDRGEVFEGMMQKSPEEVEDIASFYDYLEVQPPEVYRHLLELELVRDEKALKEIIANITKLGEKLNKPVVATGNVHYLNDEGHHHHHH | soluble
MGSDKIHHHHHHMASKATSIDIAYRAGVSQSTVSRALRNSPLVNLETRQRIQAIAKELNYKVDKNASNLRMQNSHTLALLICEDPTNDESMINPFFLSMLGSITRATARQGYDLLVSFQQLSTDWHADYEDSNKADGIILLGYGDYMDYAHKLDKLIEKNTHFVIWGAEHNNKAVLSIGCDNHQGGFVATEHLLGLGHKHIAFLGDSSSRSPEFRDRYLGHVDALQSTGIEADTQLQHDAINTEASGYHAANVLLDSGVTFDAIFTASDLIAIGAIRALKKRGVLVPEQVAVVGYDDIPVASFANPALTTIKQDTQFAGEILVESVLKLIRGQEVSQRLIKTHLVVRSSCGANVEDN | not soluble
MRRVLVGAAALITALLVLTGCTKSISGTAVKAGGAGVPRNNNSQERYPNLLKECEVLTTDILAKTVGADPLDIQSTFVGAICRWQAANPAGLIDITRFWFEQGSLSNERKVAEGLKYQVETRAIQGVDSIVMRTGDPNGACGVASDAAGVVGWWVNPQAPGIDACGQAIKLMELTLATNA | soluble
MGSDKIHHHHHHMQIRADFDSGNIQVIDASDPRRIRLAIRPDLASQHFQWFHFKVEGMAPATEHCFTLVNAGQSAYSHAWSGYQAVASYDGERWFRVPSQYDADGLHFQLEPEESEVRFAYFEPYSRERHARLVERALGIEGVERLAVGTSVQGRDIELLRVRRHPDSHLKLWVIAQQHPGEHMAEWFMEGLIERLQRPDDTEMQRLLEKADLYLVPNMNPDGAFHGNLRTNAAGQDLNRAWLEPSAERSPEVWFVQQEMKRHGVDLFLDIHGDEEIPHVFAAGCEGNPGYTPRLERLEQRFREELMARGEFQIRHGYPRSAPGQANLALACNFVGQTYDCLAFTIEMPFKDHDDNPEPGTGWSGARSKRLGQDVLSTLAVLVDELR | not soluble
MSNKNKSYDYVIIGGGSAGSVLGNRLSEDKDKEVLVLEAGRSDYFWDLFIQMPAALMFPSGNKFYDWIYSTDEEPHMGGRKVAHARGKVLGGSSSINGMIYQRGNPMDYEGWAEPEGMETWDFAHCLPYFKKLEKTYGAAPYDKFRGHDGPIKLKRGPATNPLFQSFFDAGVEAGYHKTPDVNGFRQEGFGPFDSQVHRGRRMSASRAYLHPAMKRKNLTVETRAFVTEIHYEGRRATGVTYKKNGKLHTIDANEVILSGGAFNTPQLLQLSGIGDSEFLKSKGIEPRVHLPGVGENFEDHLEVYIQHKCKEPVSLQPSLDIKRMPFIGLQWIFTRTGAAASNHFEGGGFVRSNNEVDYPNLMFHFLPIAVRYDGQKAAVAHGYQVHVGPMYSNSRGSLKIKSKDPFEKPSIRFNYLSTEEDKKEWVEAIRVARNILSQKAMDPFNGGEISPGPEVQTDEEILDWVRRDGETALHPSCSAKMGPASDPMAVVDPLTMKVHGMENLRVVDASAMPRTTNGNIHAPVLMLAEKAADIIRGRKPLEPQYIDYYKHGVHDENEGAIEVKPYAK | not soluble
